In the supplement of paper PMC11316812:
± gives the standard deviation of the averaged measurements.

How the values were obtained:
[1] = tested on: hTERT-HMEC; assay: percentage of EdU-negative (G0-arrested) nuclei per well, 72 h; higher = more G0 arrest; settings: reference: sequence is the full UniProt precursor, the tested protein was the secreted form or ectodomain
[2] = tested on: MCF7; assay: as above; settings: reference: sequence is the full UniProt precursor, the tested protein was the secreted form or ectodomain
[3] = protein concentration 0.0225 µM
[4] = protein concentration 0.01025 µM
[5] = protein concentration 0.1025 µM
[6] = protein concentration 0.03125 µM
[7] = protein concentration 0.3125 µM
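Also: secreted proteins added to cultured cells, EdU pulse at the end, nuclei found by Hoechst imaging, EdU status from nuclear versus surrounding ring intensity ratio, PBS as neutral control.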

| Sequence | percentage of EdU-negative [1, 3] | percentage of EdU-negative ([1]; protein concentration 0.225 µM) | percentage of EdU-negative [2, 3] | percentage of EdU-negative ([2]; protein concentration 0.225 µM) | further results |
| --- | --- | --- | --- | --- | --- |
| MNAFLLSALCLLGAWAALAGGVTVQDGNFSFSLESVKKLKDLQEPQEPRVGKLRNFAPIPGEPVVPILCSNPNFPEELKPLCKEPNAQEILQRLEEIAEDPGTCEICAYAACTGC | 5.03 ± 0.081% | 5.29 ± 0.21% | 27.03 ± 0.26% | 24.3 ± 0.35% | – |
| MGTSPSSSTALASCSRIARRATATMIAGSLLLLGFLSTTTAQPEQKASNLIGTYRHVDRATGQVLTCDKCPAGTYVSEHCTNTSLRVCSSCPVGTFTRHENGIEKCHDCSQPCPWPMIEKLPCAALTDRECTCPPGMFQSNATCAPHTVCPVGWGVRKKGTETEDVRCKQCARGTFSDVPSSVMKCKAYTDCLSQNLVVIKPGTKETDNVCGTLPSFSSSTSPSPGTAIFPRPEHMETHEVPSSTYVPKGMNSTESNSSASVRPKVLSSIQEGTVPDNTSSARGKEDVNKTLPNLQVVNHQQGPHHRHILKLLPSMEATGGEKSSTPIKGPKRGHPRQNLHKHFDINEHLPWMIVLFLLLVLVVIVVCSIRKSSRTLKKGPRQDPSAIVEKAGLKKSMTPTQNREKWIYYCNGHGIDILKLVAAQVGSQWKDIYQFLCNASEREVAAFSNGYTADHERAYAALQHWTIRGPEASLAQLISALRQHRRNDVVEKIRGLMEDTTQLETDKLALPMSPSPLSPSPIPSPNAKLENSALLTVEPSPQDKNKGFFVDESEPLLRCDSTSSGSSALSRNGSFITKEKKDTVLRQVRLDPCDLQPIFDDMLHFLNPEELRVIEEIPQAEDKLDRLFEIIGVKSQEASQTLLDSVYSHLPDLL | 4.84 ± 0.51% | 5.355 ± 0.035% | 27.8 ± 0.67% | 25.7 ± 4.1% | – |
| MVRARHQPGGLCLLLLLLCQFMEDRSAQAGNCWLRQAKNGRCQVLYKTELSKEECCSTGRLSTSWTEEDVNDNTLFKWMIFNGGAPNCIPCKETCENVDCGPGKKCRMNKKNKPRCVCAPDCSNITWKGPVCGLDGKTYRNECALLKARCKEQPELEVQYQGRCKKTCRDVFCPGSSTCVVDQTNNAYCVTCNRICPEPASSEQYLCGNDGVTYSSACHLRKATCLLGRSIGLAYEGKCIKAKSCEDIQCTGGKKCLWDFKVGRGRCSLCDELCPDSKSDEPVCASDNATYASECAMKEAACSSGVLLEVKHSGSCNSISEDTEEEEEDEDQDYSFPISSILEW | – | – | – | – | percentage of EdU-negative [1, 4]: 5.35 ± 0.64%; percentage of EdU-negative [1, 5]: 6.11 ± 0.15%; percentage of EdU-negative [2, 4]: 25.7 ± 1.4%; percentage of EdU-negative [2, 5]: 26.2 ± 0.46% |
| MLPPWTLGLLLLATVRGKEVCYGQLGCFSDEKPWAGTLQRPVKLLPWSPEDIDTRFLLYTNENPNNFQLITGTEPDTIEASNFQLDRKTRFIIHGFLDKAEDSWPSDMCKKMFEVEKVNCICVDWRHGSRAMYTQAVQNIRVVGAETAFLIQALSTQLGYSLEDVHVIGHSLGAHTAAEAGRRLGGRVGRITGLDPAGPCFQDEPEEVRLDPSDAVFVDVIHTDSSPIVPSLGFGMSQKVGHLDFFPNGGKEMPGCKKNVLSTITDIDGIWEGIGGFVSCNHLRSFEYYSSSVLNPDGFLGYPCASYDEFQESKCFPCPAEGCPKMGHYADQFKGKTSAVEQTFFLNTGESGNFTSWRYKISVTLSGKEKVNGYIRIALYGSNENSKQYEIFKGSLKPDASHTCAIDVDFNVGKIQKVKFLWNKRGINLSEPKLGASQITVQSGEDGTEYNFCSSDTVEENVLQSLYPC | 4.69 ± 0.62% | 5.7 ± 0.076% | 25.9 ± 0.35% | 26.41 ± 0.1% | – |
| MEPLRLLILLFVTELSGAHNTTVFQGVAGQSLQVSCPYDSMKHWGRRKAWCRQLGEKGPCQRVVSTHNLWLLSFLRRWNGSTAITDDTLGGTLTITLRNLQPHDAGLYQCQSLHGSEADTLRKVLVEVLADPLDHRDAGDLWFPGESESFEDAHVEHSISRSLLEGEIPFPPTSILLLLACIFLIKILAASALWAAAWHGQKPGTHPPSELDCGHDPGYQLQTLPGLRDT [Q9NZC2] | 5.63 ± 0.64% | 7.25 ± 1.5% | 23.6 ± 1.7% | 29.3 ± 2.9% | – |
| MALEKSLVRLLLLVLILLVLGWVQPSLGKESRAKKFQRQHMDSDSSPSSSSTYCNQMMRRRNMTQGRCKPVNTFVHEPLVDVQNVCFQEKVTCKNGQGNCYKSNSSMHITDCRLTNGSRYPNCAYRTSPKERHIIVACEGSPYVPVHFDASVEDST | – | – | – | – | percentage of EdU-negative [1, 6]: 4.76 ± 0.11%; percentage of EdU-negative [1, 7]: 4.52 ± 0.25%; percentage of EdU-negative [2, 6]: 25.8 ± 0.52%; percentage of EdU-negative [2, 7]: 24.63 ± 0.044% |
